What was measured:
[1] = system: PA-1 cells; assay: In vitro anti-proliferative activity (CCK8); format: cell-based; conditions: Ovarian cancer, read-out: Proliferation inhibition rate IC50±SD
Protocol: (§1) The cell lines used in this example, including MCF-7, MDA-MB-231, NCI-N87, NCI-H446, HT-29, HCC827, and HCC1187 cells, were purchased from Cobioer Biosciences, Nanjing, and Yuchi Biology, Shanghai, and cultured according to the corresponding instructions. The above cells in logarithmic growth phase were inoculated into 96-well cell culture plates at a density of 250 to 1500 cells per well (depending on the growth rate of different cells) at 150 µL/well, and cultured at 37°C, 5% CO2 for about 3 to 5 hours. Then, mAb001c-vcMMAE at different concentrations were added, each drug concentration in 2 to 4 replicates, as well as the corresponding vehicle control and blank control wells. After 5 to 6 days of action (depending on the cell growth rate, to ensure a sufficient number of cell divisions), the culture medium was removed and CCK8 reaction solution (purchased from MCE, cat# HY-K0301) was added at 100 µL/well. The reaction was carried out at 37°C until the expected color depth. The cell viability (OD450 nm) of each group was measured, and the cell survival rate was calculated according to the following formula: survival rate = (OD drug-OD blank)/(OD control-OD blank) × 100%. The above data were analyzed by GraphPad Prism 5 software, and the IC50 values of the above ROR1 antibody-drug conjugates for different cell lines were calculated.
(§2) The cell lines used in this example, including breast cancer cell lines MCF-7, SK-BR-3, MDA-MB-231, and HCC1187, colorectal cancer cell lines HT-29, SK-CO-1, and COLO-678, lung cancer cell lines HCC827, and H446, ovarian cancer cell line PA-1, gastric cancer cell line NCI-N87, were purchased from Cobioer Biosciences, Nanjing, and Yuchi Biology, Shanghai, and cultured according to the corresponding instructions. The CCK8 method was used to determine the in vitro killing activity of Hu001-2-MMAE, Hu001-3-MMAE, Hu005-44-MMAE, and Hu005-46-MMAE against various cancer cells, as well as UC961-MMAE as a positive reference. The implementation method was referred to Example 13.

[2] = system: NCI-H446 cells; assay: In vitro anti-proliferative activity (CCK8); format: cell-based; conditions: Lung cancer, read-out: Proliferation inhibition rate IC50±SD
Protocol: as §1, §2

[3] = system: SK-BR-3 cells; assay: In vitro anti-proliferative activity (CCK8); format: cell-based; conditions: Breast cancer, read-out: Proliferation inhibition rate IC50±SD
Protocol: as §1, §2

[4] = system: SK-CO-1 cells; assay: In vitro anti-proliferative activity (CCK8); format: cell-based; conditions: Bowel cancer, read-out: Proliferation inhibition rate IC50±SD
Protocol: as §1, §2

[5] = system: MCF-7 cells; assay: In vitro anti-proliferative activity (CCK8); format: cell-based; conditions: Breast cancer, read-out: Proliferation inhibition rate IC50±SD
Protocol: as §1, §2

[6] = system: COLO-678 cells; assay: In vitro anti-proliferative activity (CCK8); format: cell-based; conditions: Bowel cancer, read-out: Proliferation inhibition rate IC50±SD
Protocol: as §1, §2

[7] = system: NCI-N87 cells; assay: In vitro anti-proliferative activity (CCK8); format: cell-based; conditions: Gastric cancer, read-out: Proliferation inhibition rate IC50±SD
Protocol: as §1, §2

[8] = system: HT-29 cells; assay: In vitro anti-proliferative activity (CCK8); format: cell-based; conditions: Bowel cancer, read-out: Proliferation inhibition rate IC50±SD
Protocol: as §1, §2

[9] = system: HCC1187 cells; assay: In vitro anti-proliferative activity (CCK8); format: cell-based; conditions: Breast cancer, read-out: Proliferation inhibition rate IC50±SD
Protocol: as §1, §2

[10] = system: HCC827 cells; assay: In vitro anti-proliferative activity (CCK8); format: cell-based; conditions: Lung cancer, read-out: Proliferation inhibition rate IC50±SD
Protocol: as §1, §2

[11] = system: MDA-MB-231 cells; assay: In vitro anti-proliferative activity (CCK8); format: cell-based; conditions: Breast cancer, read-out: Proliferation inhibition rate IC50±SD
Protocol: as §1, §2

[12] = system: HCC1187 tumors; assay: In vivo antitumor activity, subcutaneous tumor model; parameters: species or system immunodeficient mice (NCG or Balb/c-nude); conditions: for Tumor inhibition rate (%): day 21
Protocol: (§3) 200 µL of cell matrix gel suspension containing 5 × 10^6 MDA-MB-231, 1 × 10^7 HCC1187, 1 × 10^7 PA-1, or 5 × 10^6 NCI-N87 was inoculated subcutaneously on the back of immunodeficient mice (NCG or Balb/c-nude). When the tumor volume grew to 100 to 300 mm3, the mice were randomly divided into groups (n=8 to 10) according to the tumor volume and nude mouse weight. The mice were dosed at doses of 5 mg/kg and 2.5 mg/kg once a week through the tail vein for a total of 3 weeks, as well as a group with PBS set as a negative control. The tumor volume and nude mouse weight were measured and recorded 2 to 3 times a week to plot the tumor growth curve. The formula for calculating tumor volume (V) is: V=1/2×a×b2, where a and b represent the length and width of the tumor, respectively.

[13] = system: PA-1 tumors; assay: as above; parameters: species or system immunodeficient mice (NCG or Balb/c-nude); conditions: PA-1 model; for Tumor inhibition rate (%): day 28
Protocol: as §3

[14] = system: NCI-N87 tumors; assay: as above; parameters: species or system immunodeficient mice (NCG or Balb/c-nude); conditions: for Tumor inhibition rate (%): day 21
Protocol: as §3

[15] = 2.5mg/kg once a week x3, tail vein
[16] = 5mg/kg once a week x3, tail vein

B1: UC961-MMAE: UC961 coupled with vcMMAE, prepared as a positive reference, average DAR about 3.95 (conjugate)
VH: QVQLQESGPGLVKPSQTLSLTCTVSGYAFTAYNIHWVRQAPGQGLEWMGSFDPYDGGSSYNQKFKDRLTISKDTSKNQVVLTMTNMDPVDTATYYCARGWYYFDYWGHGTLVTVSS
VL: DIVMTQTPLSLPVTPGEPASISCRASKSISKYLAWYQQKPGQAPRLLIYSGSTLQSGIPPRFSGSGYGTDFTLTINNIESEDAAYYFCQQHDESPYTFGEGTKVEIK
- IC50 [1]: 3.35 ± 0.12 nM
- IC50 [2]: 11.6 ± 2.52 nM
- IC50 [3]: > 100 nM
- IC50 [4]: 5.75 ± 2.46 nM
- IC50 [5]: > 100 nM
- IC50 [6]: 19.1 ± 0.78 nM
- IC50 [7]: 11.2 ± 2.47 nM
- IC50 [8]: 24.6 ± 1.04 nM
- IC50 [9]: 3 ± 1.5 nM
- IC50 [10]: 45.3 ± 25.7 nM
- IC50 [11]: 13.5 ± 3.61 nM
- Tumor volume ± SE (mm^3) on day 21th of administration [12, 15]: 2576.56±461.28 mm^3
- Tumor inhibition rate (%) ([12]; 2.5mg/kg): 15.18%
- Tumor volume ± SE (mm^3) on day 21th of administration [12, 16]: 407.09±69.85 mm^3
- Tumor inhibition rate (%) ([12]; 5mg/kg): 86.60%
- Tumor volume ± SE (mm^3) on day 28th of administration [13, 15]: 1032.13±123.29 mm^3
- Tumor inhibition rate (%) ([13]; 2.5mg/kg): 32.09%
- Tumor volume ± SE (mm^3) on day 28th of administration [13, 16]: 44.67±3.04 mm^3
- Tumor inhibition rate (%) ([13]; 5mg/kg): 97.06%
- Tumor volume ± SE (mm^3) on day 21th of administration [14, 15]: 2010.44±266.07 mm^3
- Tumor inhibition rate (%) ([14]; 2.5mg/kg): 19.87%
- Tumor volume ± SE (mm^3) on day 21th of administration [14, 16]: 1171.18±130.32 mm^3
- Tumor inhibition rate (%) ([14]; 5mg/kg): 53.32%

Reference: patent EP4585616A1, “ANTIBODY CAPABLE OF SPECIFICALLY BINDING TO ROR1, […] THEREOF, AND PREPARATION METHOD THEREFOR AND USE THEREOF” (Hefei Institutes of Physical Science, Chinese Academy of …, priority 2022, dated 2024)
